This test concerns the target Dpy30 C-terminal domain (human), Q9C005. The test can be described thus: ITC; Dpy30FL or Dpy30C with synthetic DBM peptides; conditions not shown. In general terms: In ITC the heat of successive injections is recorded.

Dpy30 C-terminal domain (human), Q9C005, sequence (Q9C005 45-99): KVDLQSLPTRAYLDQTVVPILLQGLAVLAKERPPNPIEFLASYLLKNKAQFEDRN

As usually defined, the stoichiometry N is a count of units in the complex or per binding partner. As for DTLYKEQIAEDIVWDIIDELEQIALQQ (modifications not checked) [Bre2 Dpy30-binding motif peptide], the stoichiometry N was 0.5.

Source of the values: publication PMC4312765.
